The text below walks through data of patent publication US20200270125A1 (OMEROS, published 2020).

In assay [1] the target is T1, human MASP-3 (construct not stated) (human).
T1 construct: also called MASP-3 antigen
T1 chain: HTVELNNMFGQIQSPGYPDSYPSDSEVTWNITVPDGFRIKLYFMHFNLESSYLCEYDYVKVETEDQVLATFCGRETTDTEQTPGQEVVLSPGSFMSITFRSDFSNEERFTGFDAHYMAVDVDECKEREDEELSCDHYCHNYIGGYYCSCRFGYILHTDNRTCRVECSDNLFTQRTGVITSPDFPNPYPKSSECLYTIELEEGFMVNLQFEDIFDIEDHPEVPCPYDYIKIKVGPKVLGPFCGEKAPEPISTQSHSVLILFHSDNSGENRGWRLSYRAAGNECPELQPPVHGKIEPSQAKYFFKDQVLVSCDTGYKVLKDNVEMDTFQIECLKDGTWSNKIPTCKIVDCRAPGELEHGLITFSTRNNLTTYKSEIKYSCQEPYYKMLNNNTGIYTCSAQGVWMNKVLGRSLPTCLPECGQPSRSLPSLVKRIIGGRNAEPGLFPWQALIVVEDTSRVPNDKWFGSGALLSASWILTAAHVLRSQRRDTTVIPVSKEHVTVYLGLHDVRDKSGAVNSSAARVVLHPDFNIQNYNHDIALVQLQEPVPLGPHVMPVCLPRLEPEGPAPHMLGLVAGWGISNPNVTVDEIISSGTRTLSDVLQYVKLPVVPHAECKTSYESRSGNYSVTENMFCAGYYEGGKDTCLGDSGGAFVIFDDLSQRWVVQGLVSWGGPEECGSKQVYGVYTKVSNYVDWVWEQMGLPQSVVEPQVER
Put plainly: ELISA, monovalent Fab. On the technique in general: In an ELISA, binding on a coated surface is turned into a signal by an enzyme label.

The target in assay [2] is T1, human MASP-3 (construct not stated). Put plainly: not described at this place.
For assay [3], the target named is T2, human MASP-3 CCP1-CCP2-SP fragment (human).
T2 construct: limits of the assay construct are not restated; also called rMASP-3 (CCP1-CCP2-SP)
T2 chain: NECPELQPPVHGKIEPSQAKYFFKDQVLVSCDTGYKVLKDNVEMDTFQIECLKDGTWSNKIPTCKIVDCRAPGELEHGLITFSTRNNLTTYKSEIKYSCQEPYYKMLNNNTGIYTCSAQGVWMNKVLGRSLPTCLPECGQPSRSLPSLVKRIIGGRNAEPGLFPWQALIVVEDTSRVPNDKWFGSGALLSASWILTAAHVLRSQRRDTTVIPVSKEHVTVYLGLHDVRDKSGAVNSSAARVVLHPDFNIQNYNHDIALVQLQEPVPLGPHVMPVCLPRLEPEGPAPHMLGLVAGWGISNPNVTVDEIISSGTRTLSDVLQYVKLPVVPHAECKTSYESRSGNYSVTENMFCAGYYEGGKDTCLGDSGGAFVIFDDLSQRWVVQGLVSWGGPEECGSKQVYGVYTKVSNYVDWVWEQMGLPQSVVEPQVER
Nature of the assay: sandwich ELISA, MASP-3 CCP1-CCP2-SP captured by αM3-259. As to the method:
(§1) The plate was then washed (PBS-T, 0.05%) and the candidate MASP-3 antibodies were added followed by incubation for one hour at room temperature. The plate was washed (PBS-T, 0.05%) and a detection antibody was added (mouse anti-human kappa-HRP, SouthernBiotech #9230-05) for one hour at room temperature. After another wash (PBS-T, 0.05%) the plate was developed (5 minutes) with OPT EIA TMB (BD Biosciences #555214). Absorbance reading at A450 was measured using the Spectramax M5e plate reader.

Assay [4] addresses T3, recombinant human MASP-1A (S646A, CCP1-CCP2-SP fragment) (human, UniProt P48740 298-699, limits assumed).
T3 chain: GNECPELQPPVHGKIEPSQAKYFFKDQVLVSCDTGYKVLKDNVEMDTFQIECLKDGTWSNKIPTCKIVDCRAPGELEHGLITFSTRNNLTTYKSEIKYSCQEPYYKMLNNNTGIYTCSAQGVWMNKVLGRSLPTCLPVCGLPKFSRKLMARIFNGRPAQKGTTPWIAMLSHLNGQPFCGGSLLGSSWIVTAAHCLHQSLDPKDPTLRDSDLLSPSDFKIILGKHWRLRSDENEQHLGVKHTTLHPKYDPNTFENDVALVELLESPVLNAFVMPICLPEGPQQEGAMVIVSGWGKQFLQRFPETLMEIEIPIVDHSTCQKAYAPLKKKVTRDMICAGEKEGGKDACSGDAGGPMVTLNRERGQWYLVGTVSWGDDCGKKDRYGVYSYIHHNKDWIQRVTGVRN
Put plainly: ELISA: recombinant MASP-1A (S646A, CCP1-CCP2-SP) coated directly on the plate, A450. As for the experimental part: as §1

Assay [5] addresses T4, recombinant full-length mouse MASP-3 (mouse).
T4 construct: Entry is with leader; also called mouse full length MASP-3
T4 chain: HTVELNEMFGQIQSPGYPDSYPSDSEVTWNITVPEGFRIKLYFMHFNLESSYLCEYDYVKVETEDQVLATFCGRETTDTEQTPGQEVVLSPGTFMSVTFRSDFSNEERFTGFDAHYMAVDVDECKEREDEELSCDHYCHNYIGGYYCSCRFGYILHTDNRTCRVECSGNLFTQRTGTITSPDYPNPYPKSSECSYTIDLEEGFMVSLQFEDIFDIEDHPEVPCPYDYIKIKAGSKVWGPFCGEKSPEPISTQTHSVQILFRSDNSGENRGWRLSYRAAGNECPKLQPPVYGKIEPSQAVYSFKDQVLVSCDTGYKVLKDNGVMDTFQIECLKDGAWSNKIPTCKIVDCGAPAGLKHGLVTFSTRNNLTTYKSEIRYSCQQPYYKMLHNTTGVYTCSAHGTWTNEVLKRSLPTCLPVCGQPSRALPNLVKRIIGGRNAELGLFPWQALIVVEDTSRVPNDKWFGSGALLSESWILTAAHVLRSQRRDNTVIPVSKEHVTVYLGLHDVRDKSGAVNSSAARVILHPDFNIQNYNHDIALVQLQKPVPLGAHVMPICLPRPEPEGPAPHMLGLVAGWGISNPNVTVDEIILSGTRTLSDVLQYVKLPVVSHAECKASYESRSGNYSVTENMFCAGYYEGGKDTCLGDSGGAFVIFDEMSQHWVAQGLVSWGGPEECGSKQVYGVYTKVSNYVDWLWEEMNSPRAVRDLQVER
Put plainly: sandwich ELISA, full-length mouse MASP-3 captured by αM3-259. As for the experimental part: as §1

For assay [6], the target named is T5, recombinant human MASP-2 (CCP1-CCP2-SP fragment) (human, UniProt O00187 298-686, limits assumed).
T5 construct: domain: CCP1-CCP2-SP fragment
T5 sequence (O00187 298-686 limits assumed): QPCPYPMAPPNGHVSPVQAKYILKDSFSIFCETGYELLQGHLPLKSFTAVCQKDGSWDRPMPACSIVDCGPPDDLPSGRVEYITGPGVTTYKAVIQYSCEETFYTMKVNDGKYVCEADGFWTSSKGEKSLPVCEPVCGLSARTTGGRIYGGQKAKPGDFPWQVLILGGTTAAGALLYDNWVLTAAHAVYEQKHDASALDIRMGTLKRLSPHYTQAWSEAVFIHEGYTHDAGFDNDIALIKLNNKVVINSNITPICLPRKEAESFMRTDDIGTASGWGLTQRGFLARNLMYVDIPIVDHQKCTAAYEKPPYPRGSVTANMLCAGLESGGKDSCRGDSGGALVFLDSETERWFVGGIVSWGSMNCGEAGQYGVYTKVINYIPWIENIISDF
Nature of the assay: ELISA: recombinant MASP-2 (CCP1-CCP2-SP) coated directly on the plate, A450. As for the experimental part:
as §1

B1: h4D5-19-1-NA Fab (VH-19 and VL-1-NA) (Fab, V domains shown)
VH: QVQLVQSGAEVKKPGASVKVSCKASGYTFTTDDINWVRQAPGQGLEWIGWIYPRDDRTKYNDKFKDRATLTVDTSSNTAYMELSSLRSEDTAVYYCSSLEDTYWGQGTLVTVSS
VL: DIVMTQSPDSLAVSLGERATINCKSSQSLLASRTRKNYLAWYQQKPGQPPKLLIYWASTRESGVPDRFSGSGSGTDFTLTISSLQAEDVAVYYCKQSYNLYTFGQGTKVEIKR
notes: Humanized monovalent Fab; also called 4D5-NA mutant
As a reminder, the EC50 is the concentration that produces a half-maximal response. As for B1, in assay [1], the EC50 amounted to 0.122 nM.

B2: h4D5-19-1-NQ Fab (VH-19 and VL-1-NQ) (Fab, V domains shown)
VH: QVQLVQSGAEVKKPGASVKVSCKASGYTFTTDDINWVRQAPGQGLEWIGWIYPRDDRTKYNDKFKDRATLTVDTSSNTAYMELSSLRSEDTAVYYCSSLEDTYWGQGTLVTVSS
VL: DIVMTQSPDSLAVSLGERATINCKSSQSLLQSRTRKNYLAWYQQKPGQPPKLLIYWASTRESGVPDRFSGSGSGTDFTLTISSLQAEDVAVYYCKQSYNLYTFGQGTKVEIKR
notes: also called 4D5-NQ mutant
In assay [1], B2 gave a 50% effective concentration (EC50) of 0.732 nM.

B3: h4D5-19-1-ST Fab (VH-19 and VL-1-ST) (Fab, V domains shown)
VH: QVQLVQSGAEVKKPGASVKVSCKASGYTFTTDDINWVRQAPGQGLEWIGWIYPRDDRTKYNDKFKDRATLTVDTSSNTAYMELSSLRSEDTAVYYCSSLEDTYWGQGTLVTVSS
VL: DIVMTQSPDSLAVSLGERATINCKSSQSLLNTRTRKNYLAWYQQKPGQPPKLLIYWASTRESGVPDRFSGSGSGTDFTLTISSLQAEDVAVYYCKQSYNLYTFGQGTKVEIKR
notes: also called 4D5-ST mutant
Molecule B3 came in with a 50% effective concentration (EC50) in assay [1] of 0.151 nM.

B4: MASP-3 mAb 49C11 (mouse-human chimeric IgG4) (antibody, V domains shown)
VH: EVQLQQSGPVLVKPGASGKMSCKASGYKFTDYYMIWVKQSHGKSLEWIGVIKIYNGGTSYNQKFKGKATLTVDKSSSTAYMELNSLTSEDSAVYYCARGPSLYDYDPYWYFDVWGTGTTVTVSS
VL: DVLMTQTPLSLPVSLGDQASFSCRSSQSLIHSNGNTYLHWYLQKPGQSPKLLIYKVSNRFSGVPDRFSGSGSGTDFTLKISRVEAEDLGVYFCSQSTHVPWTFGGGTKLEIKR
With B4, in assay [2], the binding affinity was at most 500 pM. In addition, the figures for the EC50 in assay [3] and in assay [5] were 0.069 nM and 0.064 nM, respectively. Besides, the binding result in assay [4] and in assay [6] was “no binding (tested: about 20 nM (log10 about 1.3))” throughout.

B5: MASP-3 mAb 1E7 (mouse-human chimeric IgG4) (antibody, V domains shown)
VH: QVQLKQSGPELARPWASVKISCQAFYTFSRRVHFAIRDTNYWMQWVKQRPGQGLEWIGAIYPGNGDTSYNQKFKGKATLTADKSSSTAYMQLSSLTSEDSAVYYCASGSHYFDYWGQGTTLTVSS
VL: DIQLTQSPAILSVSPGERVSFSCRASQSIGTSIHWYQQRTNGSPRLLIKYASESISGIPSRFSGSGSGTDFTLSINSVESEDIADYYCQQSNSWPYTFGGGTKLEIKR
In assay [2], B5 registered a binding affinity of at most 500 pM. Besides, the results for the EC50 in assay [3] and in assay [5] were 0.112 nM and 117 nM, respectively.

B6: MASP-3 mAb 11B6 (mouse-human chimeric IgG4) (antibody, V domains shown)
VH: QVQLKQSGAELVKPGASVKMSCKASGYTFTTYPIEWMKQNHGKSLEWIGNFHPYNGDSKYNEKFKGKATLTVEKSSSTVYLELSRLPSADSAIYYCARRHYAASPWFAHWGQGTLVTVSS
VL: DIVMTQSQKFMSTSVGDRVNVTCKASQNVGPTVAWYQQKPGQSPKALIYSASYRYSGVPDRFTGSGSGTDFTLTISNVHSEDLAEYFCQQYNSYPFTFGSGTKLEIKR
Turning to B6, the binding affinity in assay [2] was at most 500 pM. In addition, the concentration for a half-maximal effect (EC50) in assay [3] is 0.06 nM; in assay [5] it was 0.066 nM. In addition, the binding result in assay [4] and in assay [6] was “no binding (tested: about 20 nM (log10 about 1.3))” throughout.

B7: MASP-3 mAb 1B11 (mouse-human chimeric IgG4) (antibody, V domains shown)
VH: QVQLKQSGAELVRPGASVKLSCKASGYTFTDYYINWVKQRPGQGLEWIARIYPGSGNTYYNEKFKGKATLTAEKSSSTAYMQLSSLTSEDSAVYFCARNYYISSPWFAYWGQGTLVTVSS
VL: DIVMTQSQKFMSTSVGDRVSVTCKASQNVGPNVAWYQQKPGQSPKALIYSASYRYSGVPDRFTGSGSGTDFTLTISNVQSEDLADYFCQQYNRYPLTFGAGTKLELKR
As to B7, the binding affinity in assay [2] is at most 500 pM. The EC50 in assay [3] was found to be 0.059 nM; in assay [5], 1.1 nM. Further, the binding result in assay [4] and in assay [6] was “no binding (tested: about 20 nM (log10 about 1.3))” throughout.

B8: MASP-3 mAb 15D9 (mouse-human chimeric IgG4) (antibody, V domains shown)
VH: QVQLKQSGTELMKPGASVNLSCKASGYTFTAYWIEWVKQRPGHGLEWIGEILPGSGTTNYNENFKDRATFTADTSSNTAYMQLSSLTSEDSAIYYCARSYYYASRWFAFWGQGTLVTVSS
VL: DIVMTQSQKFMSTSIGDRVSVTCRASQNVGPNLAWYQQKPGQSPKALIYSASYRFSGVPDRFTGSGSGTDFTLTISNVQSEDLAEYFCQQYNRYPFTFGSGTKLEIKR
B8: the binding affinity in assay [2] was at most 500 pM. For the same molecule, the concentration for a half-maximal effect (EC50) in assay [3] is 0.074 nM; in assay [5], 0.092 nM. Moreover, the binding result in assay [4] and in assay [6] was “no binding (tested: about 20 nM (log10 about 1.3))” throughout.

B9: MASP-3 mAb 35C1 (mouse-human chimeric IgG4) (antibody, V domains shown)
VH: QIQLVQSGPELKTPGETVKISCKASGYIFTSYGITWVKQAPGKGLKWMGWINTYSGVPTYADDFKGRFAFSLETSASTAYLQINNLKNEDTTTYFCTRGGDALDYWGQGTSVTVSS
VL: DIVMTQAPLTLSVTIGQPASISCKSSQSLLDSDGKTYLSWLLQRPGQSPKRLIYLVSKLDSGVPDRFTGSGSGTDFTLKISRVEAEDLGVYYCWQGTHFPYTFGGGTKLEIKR
B9 came in with a binding affinity in assay [2] of at most 500 pM. Further, the values for the 50% effective concentration (EC50) in assay [3] and in assay [5] were 0.091 nM and 0.209 nM, respectively. For the same molecule, the binding result in assay [4] and in assay [6] was “no binding (tested: about 20 nM (log10 about 1.3))” throughout.
